In patent publication US20240156961A1, “TISSUE-SPECIFIC ANTIGENS FOR CANCER IMMUNOTHERAPY” (priority 2020, published 2024):
One block for each molecule: values may come before it.

Tests used:
[1] = biological target: T1, class I HLA molecules (Homo sapiens, UniProt P01889); experiment: Targeted mass spectrometry MHC-peptide analysis (SureQuant, heavy isotope-labeled synthetic peptides); conditions: light endogenous vs heavy isotope-labeled synthetic peptide; human prostate specimen; HLA-B*07:02; Skyline software
T1 construct: Frozen cell pellets endogenously expressing MHC molecules (untagged) or biotin acceptor peptide (BAP)-tagged MHC molecules; biotin acceptor peptide (BAP), only in some samples; endogenous in cells; host or cells: Human cell lines (e.g. MDAPCa2b, CAMA1, HCC1500, A375, Expi293, B721) and human tissue (prostate, tumours); some cell samples express BAP-tagged HLA
Procedure: Tissue samples were homogenized in lysis buffer plus benzonase nuclease. All lysates were cleared by centrifugation. […] BAP-tagged samples were biotinylated with 0.56 μM biotin, 1 mM ATP, and 1 μM BirA biotin ligase for 10 minutes, and subsequently incubated with High-Capacity NeutrAvidin Agarose resin for 30 minutes at 4° C. with end-over-end rotation. […] MHC molecules were eluted using 10% acetic acid and peptides were isolated using 10K molecular weight cut-off filtration following filter passivation with 1% bovine serum albumin (BSA). If required, samples were next reduced and alkylated using 5 mM Bond-Breaker TCEP solution at 60° C. for 30 min followed by 15 mM 2-Iodoacetamide for 30 min, protected from light. […] The volume of eluted peptides was reduced using vacuum centrifugation. For targeted analyses, isolated MHC-I peptides were labeled using an isobaric labeling reagent from the tandem mass tag (TMT) 10-plex reagent set (Thermo Fisher). Dried peptides were resuspended in 50 mM HEPES buffer pH 8.5 and combined with 33.3 μg of TMT solubilized in 100% anhydrous acetonitrile. […] Peptides were analyzed using SureQuant targeted data acquisition strategy, where the heavy isotope labeled synthetic peptide serves as a trigger to guide the acquisition of spectrum corresponding to the light (unlabeled) endogenous MHC peptide using mass offset triggering and pseudo-spectral matching. […]

[2] = biological target: T2, HLA-C*06:02 (human); experiment: MS validation of HLA class I-presented peptide; sample human prostate
T2 construct: MHC class I molecule expressed by the cells or tissue sample (endogenous or BAP-tagged), immunopurified before peptide elution
Procedure: (§1) Frozen cell pellets endogenously expressing MHC molecules (untagged) or biotin acceptor peptide (BAP)-tagged MHC molecules were lysed by pipetting and end-over-end rotation for twenty minutes using lysis buffer [20 mM Tris-Cl pH 8, 100 mM NaCl, 6 mM MgCl2, 1.5% (v/v) Triton X-100, 60 mM octyl B-D-glucopyranoside, 0.2 mM of 2-Iodoacetamide, 1 mM EDTA pH 8, 1 mM PMSF, 1× complete EDTA-free protease inhibitor cocktail (Roche)] plus benzonase nuclease for twenty minutes. Tissue samples were homogenized in lysis buffer plus benzonase nuclease. All lysates were cleared by centrifugation. Samples with untagged MHC molecules were subsequently incubated with GammaBind Plus Sepharose Beads (GE Healthcare) pre-charged with a pan-HLA A/B/C antibody (clone W6/32) overnight at 4 C with end-over-end rotation. BAP-tagged samples were biotinylated with 0.56 μM biotin, 1 mM ATP, and 1 μM BirA biotin ligase for 10 minutes, and subsequently incubated with High-Capacity NeutrAvidin Agarose resin for 30 minutes at 4° C. with end-over-end rotation. Following enrichment, beads were washed 2× with wash buffer A [20 mM Tris-Cl pH 8, 100 mM, NaCl, 60 mM octyl B-D-glucopyranoside, 0.2 mM of 2-Iodoacetamide, 1 mM EDTA pH 8] and wash buffer B [10 mM Tris-Cl pH 8] using a positive pressure manifold. MHC molecules were eluted using 10% acetic acid and peptides were isolated using 10K molecular weight cut-off filtration following filter passivation with 1% bovine serum albumin (BSA). If required, samples were next reduced and alkylated using 5 mM Bond-Breaker TCEP solution at 60° C. for 30 min followed by 15 mM 2-Iodoacetamide for 30 min, protected from light. Samples were next acidified using 100% formic acid and desalted using 10 mg Sep-Pak tC18 μElution plates with peptide elutions at 15% acetonitrile and 50% acetonitrile, which were subsequently pooled. The volume of eluted peptides was reduced using vacuum centrifugation.

[3] = biological target: T3, HLA-C*07:02 (human); experiment: MS validation of HLA class I-presented peptide (second allele under Allele (MS)); sample human prostate
T3 construct: MHC class I molecule expressed by the cells or tissue sample (endogenous or BAP-tagged), immunopurified before peptide elution
Procedure: as §1, with “MHC molecules were eluted using 10% acetic acid and peptides were isolated using 10K molecular weight cut-off filtration following filter passivation with 1% bovine serum albumin (BSA). If required, samples were next reduced and alkylated using 5 mM Bond-Breaker TCEP solution at 60° C. for 30 min followed by 15 mM 2-Iodoacetamide for 30 min, protected from light. Samples were next acidified using 100% formic acid and desalted using 10 mg Sep-Pak tC18 μElution plates with peptide elutions at 15% acetonitrile and 50% acetonitrile, which were subsequently pooled. The volume of eluted peptides was reduced using vacuum centrifugation.” left out

[4] = biological target: T4, HLA-B*07:02 (human); experiment: MS validation of HLA class I-presented peptide; sample human prostate
T4 construct: MHC class I molecule expressed by the cells or tissue sample (endogenous or BAP-tagged), immunopurified before peptide elution
Procedure: as §1

[5] = biological target: T5, HLA-A*02:01 (human); experiment: MS validation of HLA class I-presented peptide; sample A375
T5 construct: MHC class I molecule expressed by the cells or tissue sample (endogenous or BAP-tagged), immunopurified before peptide elution
Procedure: as §1, with “MHC molecules were eluted using 10% acetic acid and peptides were isolated using 10K molecular weight cut-off filtration following filter passivation with 1% bovine serum albumin (BSA). If required, samples were next reduced and alkylated using 5 mM Bond-Breaker TCEP solution at 60° C. for 30 min followed by 15 mM 2-Iodoacetamide for 30 min, protected from light. Samples were next acidified using 100% formic acid and desalted using 10 mg Sep-Pak tC18 μElution plates with peptide elutions at 15% acetonitrile and 50% acetonitrile, which were subsequently pooled. The volume of eluted peptides was reduced using vacuum centrifugation.” left out

[6] = biological target: T5, HLA-A*02:01; experiment: MS validation of HLA class I-presented peptide; samples CAMA1, HCC1500
Procedure: as §1, with “MHC molecules were eluted using 10% acetic acid and peptides were isolated using 10K molecular weight cut-off filtration following filter passivation with 1% bovine serum albumin (BSA). If required, samples were next reduced and alkylated using 5 mM Bond-Breaker TCEP solution at 60° C. for 30 min followed by 15 mM 2-Iodoacetamide for 30 min, protected from light. Samples were next acidified using 100% formic acid and desalted using 10 mg Sep-Pak tC18 μElution plates with peptide elutions at 15% acetonitrile and 50% acetonitrile, which were subsequently pooled. The volume of eluted peptides was reduced using vacuum centrifugation.” left out

[7] = biological target: T6, HLA-A*01:01 (human); experiment: MS validation of HLA class I-presented peptide; sample human prostate
T6 construct: MHC class I molecule expressed by the cells or tissue sample (endogenous or BAP-tagged), immunopurified before peptide elution
Procedure: as §1

[8] = biological target: T7, HLA-C*04:01 (human); experiment: MS validation of HLA class I-presented peptide; sample CAMA1
T7 construct: MHC class I molecule expressed by the cells or tissue sample (endogenous or BAP-tagged), immunopurified before peptide elution
Procedure: as §1, with “MHC molecules were eluted using 10% acetic acid and peptides were isolated using 10K molecular weight cut-off filtration following filter passivation with 1% bovine serum albumin (BSA). If required, samples were next reduced and alkylated using 5 mM Bond-Breaker TCEP solution at 60° C. for 30 min followed by 15 mM 2-Iodoacetamide for 30 min, protected from light. Samples were next acidified using 100% formic acid and desalted using 10 mg Sep-Pak tC18 μElution plates with peptide elutions at 15% acetonitrile and 50% acetonitrile, which were subsequently pooled. The volume of eluted peptides was reduced using vacuum centrifugation.” left out

[9] = biological target: T3, HLA-C*07:02; experiment: MS validation of HLA class I-presented peptide; sample human prostate
Procedure: as §1

[10] = biological target: T5, HLA-A*02:01; experiment: as above
Procedure: as §1

[11] = biological target: T7, HLA-C*04:01; experiment: as above
Procedure: as §1

[12] = biological target: T7, HLA-C*04:01; experiment: MS validation of HLA class I-presented peptide; samples B721, A375
Procedure: as §1, with “MHC molecules were eluted using 10% acetic acid and peptides were isolated using 10K molecular weight cut-off filtration following filter passivation with 1% bovine serum albumin (BSA). If required, samples were next reduced and alkylated using 5 mM Bond-Breaker TCEP solution at 60° C. for 30 min followed by 15 mM 2-Iodoacetamide for 30 min, protected from light. Samples were next acidified using 100% formic acid and desalted using 10 mg Sep-Pak tC18 μElution plates with peptide elutions at 15% acetonitrile and 50% acetonitrile, which were subsequently pooled. The volume of eluted peptides was reduced using vacuum centrifugation.” left out

- binding result [5]: binds
Molecule: KVLEHVVRV

- binding result [10]: binds
Molecule: LLANGRMPTV

- binding result [11]: binds
Molecule: TWIAPPLQV

- binding result [12]: binds
Molecule: SVPNKALEL

Second part, the molecule before the results:

Molecule: HPEYNRPLL (listed as Homo sapiens)
- dot product similarity score of peptide fragment ions [1]: 0.992

Molecule: NRPLLANDL
- binding result [2]: binds
- binding result [3]: binds

Molecule: MPALPMVL
- binding result [4]: binds

Molecule: KVDELAHFL
- binding result [5]: binds

Molecule: SLDQKLFQL
- binding result [6]: binds

Molecule: YSEKVTEFML
- binding result [7]: binds

Molecule: SIPTKALEL
- binding result [8]: binds

Molecule: VFQVSHSF
- binding result [9]: binds
